Laboratory results from article PMC10275983 (Nature Communications, 2023).
No end group written: not given here.

These binders were tested against S1-RBD (ACROBiosystems SPD-C82E9) (SARS-CoV-2 (Wuhan-Hu-1 strain), UniProt P0DTC2 319-541) (assay: SPR). Details: both partners purified.
ACEDNDWVYCSTCA (not fully specified (bridges); also: bicyclic peptide, scaffold not named) [E3 Bicycle (exemplar of epitope group 3)]: binds.
ACEYVGPMCYRLYCA (not fully specified (bridges); also: Bicycle) [E1 Bicycle (exemplar of epitope group 1)]: binds.
ACPYVAGRGTCLLCA (not fully specified (bridges); cysteine pairing not given here) [E2 Bicycle (canonical exemplar of epitope group 2)]: binds.
ACANPDNPVCRFYCA (not fully specified (bridges); also: bicyclic peptide, scaffold not named) [E5 Bicycle (canonical exemplar of epitope group 5)]: binds.
